{"source": "paper PMC6894070", "about": "“The Plasmodium falciparum Hsp70-x chaperone assists the heat stress response of the malaria parasite” (The FASEB Journal, 2019)", "binders": {"B1": {"name": "J-domain of P. falciparum Hsp40 cochaperone PFA0660w (PFA0660wJ), aa 81-148 (domain or fragment, UniProt Q8I2E1 81-148, looked up)", "chain": "MDYYTLLGVDKGCSEDDLRRAYLKLAMKWHPDKHVNKGSKVEAEEKFKNICEAYSVLSDNEKRVKYDL", "notes": "PFA0660w, P. falciparum, pf3d7_0113700, UniProt Q8I2E1, J-domain aa 81-148; codon-optimized synthetic DNA; 15N-labelled (or 13C,15N-labelled) in the NMR assays; unlabelled in the ATP hydrolysis assays; also called PFA0660w J-domain; not shown: His6, N-terminal, cleaved"}}, "key": {"[1]": {"target": "Plasmodium falciparum Hsp70-x (PfHsp70-x), full-length construct aa 25-679 (P. falciparum, UniProt K7NTP5 25-679)", "assay": "cell-based or functional assay"}, "[2]": {"target": "T1, human heat shock cognate protein 70 (Hsc70), full length (human, UniProt P11142 1-646)", "T1 construct": "also called HSPA8; heat shock protein family A (hspa) member 8", "T1 sequence (P11142 whole entry)": "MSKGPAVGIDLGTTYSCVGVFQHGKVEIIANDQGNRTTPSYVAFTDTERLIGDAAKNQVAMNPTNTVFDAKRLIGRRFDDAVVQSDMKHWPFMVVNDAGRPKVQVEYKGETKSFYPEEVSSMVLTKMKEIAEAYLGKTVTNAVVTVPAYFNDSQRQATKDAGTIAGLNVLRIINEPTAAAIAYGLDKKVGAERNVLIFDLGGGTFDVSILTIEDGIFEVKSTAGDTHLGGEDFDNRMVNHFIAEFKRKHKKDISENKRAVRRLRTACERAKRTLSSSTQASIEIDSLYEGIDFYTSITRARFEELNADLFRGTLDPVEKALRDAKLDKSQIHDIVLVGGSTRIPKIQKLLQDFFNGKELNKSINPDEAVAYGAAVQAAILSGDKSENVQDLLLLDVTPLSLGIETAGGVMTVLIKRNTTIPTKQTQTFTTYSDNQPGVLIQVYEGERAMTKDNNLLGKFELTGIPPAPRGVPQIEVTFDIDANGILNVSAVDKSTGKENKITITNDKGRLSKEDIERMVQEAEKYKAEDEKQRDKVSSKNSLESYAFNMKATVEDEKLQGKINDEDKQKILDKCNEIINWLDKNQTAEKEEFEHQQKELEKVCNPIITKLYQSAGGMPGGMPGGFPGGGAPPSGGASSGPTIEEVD", "assay": "NMR titration; 15N-labelled PFA0660wJ titrated with unlabelled chaperone; HSQC peak intensity changes; 25°C; 20 mM sodium phosphate pH 7.4, 150 mM NaCl, 2 mM DTT", "settings": "both partners purified"}}}
{"binder": "B1", "values": [{"measurement": "fold change in ATP hydrolysis activity of PfHsp70-x upon titration of the J-domain (5 μM chaperone)", "setting": "[1]", "value": "~2", "unit": "fold"}, {"measurement": "binding result", "setting": "[2]", "value": "binds"}]}
